Values quoted from earlier work, collected in patent US20050119762A1, “Hydrogel providing cell-specific ingrowth” (priority 2003, published 2005).

Columns and labels:
[1] = biological target: T1, MMP-2 (Homo sapiens, UniProt P08253); details: synthesized peptides, reciprocal plots
T1 sequence (P08253 110-660): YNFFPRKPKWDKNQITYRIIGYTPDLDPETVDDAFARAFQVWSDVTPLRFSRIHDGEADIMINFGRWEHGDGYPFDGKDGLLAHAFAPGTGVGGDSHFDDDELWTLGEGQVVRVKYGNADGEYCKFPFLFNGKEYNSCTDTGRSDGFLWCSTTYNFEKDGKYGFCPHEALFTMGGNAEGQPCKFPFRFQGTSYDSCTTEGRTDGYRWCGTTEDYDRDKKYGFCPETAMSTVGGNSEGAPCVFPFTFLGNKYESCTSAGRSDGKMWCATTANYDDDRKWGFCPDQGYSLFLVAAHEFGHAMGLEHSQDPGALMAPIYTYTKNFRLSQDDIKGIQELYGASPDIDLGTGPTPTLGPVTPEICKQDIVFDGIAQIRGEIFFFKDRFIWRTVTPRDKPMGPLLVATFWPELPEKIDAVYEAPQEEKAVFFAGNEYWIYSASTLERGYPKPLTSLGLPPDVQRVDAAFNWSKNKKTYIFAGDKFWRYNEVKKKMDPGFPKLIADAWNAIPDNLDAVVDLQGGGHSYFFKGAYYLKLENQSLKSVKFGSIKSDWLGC

[2] = biological target: T2, MMP-9 (Homo sapiens, UniProt P14780); details: phage clones selected by MMP-9; for % Hydrolysis 1: experiment 1; for % Hydrolysis 2: experiment 2
T2 construct: a recombinant form of the catalytic domain of MMP-9 expressed in HEK 293 cells; host or cells: HEK 293 cells

[3] = biological target: T1, MMP-2; details: phage substrate clones hydrolysed by activated MMP-2; for % Hydrolysis exp 1: experiment 1; for % Hydrolysis exp 2: experiment 2
[4] = biological target: T2, MMP-9; details: peptides based on phage clones
[5] = biological target: T1, MMP-2

T2 sequence (P14780 107-444 limits assumed): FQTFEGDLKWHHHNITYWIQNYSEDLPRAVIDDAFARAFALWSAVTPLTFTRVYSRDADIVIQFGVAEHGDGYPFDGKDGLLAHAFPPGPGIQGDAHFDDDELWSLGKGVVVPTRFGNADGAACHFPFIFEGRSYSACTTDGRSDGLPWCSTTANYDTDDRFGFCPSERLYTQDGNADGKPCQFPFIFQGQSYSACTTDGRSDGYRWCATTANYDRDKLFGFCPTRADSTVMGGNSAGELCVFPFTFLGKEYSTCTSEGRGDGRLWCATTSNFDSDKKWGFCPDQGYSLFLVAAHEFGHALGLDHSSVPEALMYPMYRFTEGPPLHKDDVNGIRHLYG

Substance | MMP-2 kcat [1] | % Hydrolysis 1 [2] | % Hydrolysis 2 [2] | % Hydrolysis exp 1 [3] | % Hydrolysis exp 2 [3] | MMP-9 kcat [4] | also measured
SGESPAY ↓ YTA (SGESPAYYTA; peptide substrate based on phage clones) [Peptide B74P] | 264 s⁻¹ | – | – | – | – | – | –
SGAPSW ↓ LLTA (SGAPSWLLTA; peptide substrate based on phage clones) [Peptide A13P] | 204 s⁻¹ | – | – | – | – | – | –
SGPLF ↓ YSVTA (SGPLFYSVTA; peptide substrate based on phage clones) [Peptide A10] | – | 100% | 100% | 36% | 40% | 20 S^−1 | –
SGHMHKA ↓ LTA (SGHMHKALTA; peptide substrate based on phage clones) [Peptide A21] | 124 s⁻¹ | – | – | 30% | 49% | – | –
SGKIPRT ↓ ATA (SGKIPRTATA; peptide substrate based on phage clones) [Peptide A11m2] | – | – | – | – | – | 9.4 S^−1 | –
GCRDSGESLAYYTADRCG | – | – | – | – | – | – | hydrolysis by MMP-2 [5]: sensitive to hydrolysis
SGNRYSS ↓ LTA (SGNRYSSLTA; peptide substrate based on phage clones) [Peptide A34] | 202 s⁻¹ | – | – | 100% | 100% | – | –
SG ↓ LKALMITA (SGLKALMITA; peptide substrate based on phage clones) [Peptide A7] | – | 79.8% | 76% | – | – | 30 S^−1 | –
SGESLRY ↓ YTA (SGESLRYYTA; peptide substrate based on phage clones) [Peptide B74R] | 61 s⁻¹ | – | – | – | – | – | –
SGRSLSR ↓ LTA (SGRSLSRLTA; peptide substrate based on phage clones) [Peptide C9] | 740 s⁻¹ | – | – | 100% | 100% | – | –
SGANISD ↓ LTA (SGANISDLTA; peptide substrate based on phage clones) [Peptide B37] | 353 s⁻¹ | – | – | 97% | 95% | – | –
SGLRPAK ↓ STA (SGLRPAKSTA; peptide substrate based on phage clones) [Peptide A18] | – | 28.9% | 30% | – | – | 78 S^−1 | –
SGPRA ↓ VSTTA (SGPRAVSTTA; peptide substrate based on phage clones) [Peptide A6] | – | 100% | 99% | 30% | 44% | 178 S^−1 | –
SGESLAY ↓ YTA (SGESLAYYTA; peptide substrate based on phage clones) [Peptide B74] | 622 s⁻¹ | – | – | 81% | 90% | – | –
SGAKPRA ↓ LTA (SGAKPRALTA; peptide substrate based on phage clones) [Peptide A3] | 400 s⁻¹ | – | – | – | – | – | –
SGAVSW ↓ LLTA (SGAVSWLLTA; peptide sequence based on phage clones) [Peptide A13] | 105 s⁻¹ | 78.9% | 72% | 100% | 93% | – | –
SGKGPRQ ↓ ITA (SGKGPRQITA; peptide substrate based on phage clones) [Peptide C15] | – | 100% | 98% | – | – | 703 S^−1 | –
SGRR ↓ LLSRTA (SGRRLLSRTA; peptide substrates based on phage clones) [Peptide A16] | – | 20.2% | 11% | – | – | – | –
SGLRLAA ↓ ITA (SGLRLAAITA; peptide substrates based on phage clones) [Peptide B49] | 510 s⁻¹ | – | – | 100% | 100% | – | –
SGFGSRY ↓ LTA (SGFGSRYLTA; peptide substrate based on phage clones) [Peptide A19] | – | 45% | 50% | – | – | 11 S^−1 | –
SGKIPRR ↓ LTA (SGKIPRRLTA; peptide substrate based on phage clones) [Peptide A11m1] | – | – | – | – | – | 224 S^−1 | –
SGHMHAA ↓ LTA (SGHMHAALTA; peptide substrate based on phage clones) [Peptide A21A] | 601 s⁻¹ | – | – | – | – | – | –
SGKIPRT ↓ LTA (SGKIPRTLTA; peptide substrate based on phage clones) [Peptide A11] | – | 100% | 100% | – | – | 86.4 S^−1 | –
SGRR ↓ LIHHTA (SGRRLIHHTA; peptide substrates based on phage clones) [Peptide C11] | – | 94.9% | 74% | – | – | – | –
SGRSLRR ↓ LTA (SGRSLRRLTA; peptide substrate based on phage clones) [Peptide C9R] | 302 s⁻¹ | – | – | – | – | – | –
SGAVRW ↓ LLTA (SGAVRWLLTA; peptide substrate based on phage clones) [Peptide A13R] | 28 s⁻¹ | – | – | – | – | – | –
SGQPHY ↓ LTTA (SGQPHYLTTA; peptide substrate based on phage clones) [Peptide B1] | – | 79.6% | 85% | – | – | 9 S^−1 | –
